Results: PMC7504393 (International Journal of Molecular Sciences, 2020)
Each block holds one binder with its values, some of them ahead of it.

Legend:
[1] = molecular target: T1, recombinant human YKL-40 protein (hYKL-40) (Homo sapiens, UniProt P36222); experiment: ELISA; hYKL-40 coated at 2 ug/mL (30 uL per well, overnight, 4 °C); serially diluted Fabs, 1 h at 37 °C; detection with HRP-conjugated StrepMAB-Classic; apparent affinity (EC50); details: both partners purified
T1 construct: human YKL-40 (chitinase-3-like 1, CHI3L1), recombinant protein from Sino Biological; also called chitinase-3-like 1; CHI3L1; source: bought: Sino Biological
T1 sequence (P36222 22-383): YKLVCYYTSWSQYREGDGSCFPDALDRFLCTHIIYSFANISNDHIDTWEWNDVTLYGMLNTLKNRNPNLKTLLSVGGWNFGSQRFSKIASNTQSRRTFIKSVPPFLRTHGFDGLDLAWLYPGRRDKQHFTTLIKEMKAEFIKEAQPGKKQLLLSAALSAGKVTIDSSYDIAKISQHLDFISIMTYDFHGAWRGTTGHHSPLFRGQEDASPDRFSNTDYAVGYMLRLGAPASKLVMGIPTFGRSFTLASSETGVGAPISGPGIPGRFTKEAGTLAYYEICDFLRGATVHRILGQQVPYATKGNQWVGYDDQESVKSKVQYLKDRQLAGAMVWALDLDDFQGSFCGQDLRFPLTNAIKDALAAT

[2] = molecular target: T1, recombinant human YKL-40 protein …; experiment: ELISA; soluble ELISA of serially diluted IgGs on immobilized hYKL-40 surfaces; apparent affinity (EC50); details: both partners purified
[3] = molecular target: T2, recombinant mouse YKL-40 (Mus musculus, UniProt Q61362); experiment: western blot; H1 (IgG) as the probing antibody on recombinant human and mouse YKL-40 (Figure S5); details: both partners purified
T2 construct: mouse YKL-40 (chitinase-3-like protein 1), recombinant
T2 sequence (Q61362 30-389): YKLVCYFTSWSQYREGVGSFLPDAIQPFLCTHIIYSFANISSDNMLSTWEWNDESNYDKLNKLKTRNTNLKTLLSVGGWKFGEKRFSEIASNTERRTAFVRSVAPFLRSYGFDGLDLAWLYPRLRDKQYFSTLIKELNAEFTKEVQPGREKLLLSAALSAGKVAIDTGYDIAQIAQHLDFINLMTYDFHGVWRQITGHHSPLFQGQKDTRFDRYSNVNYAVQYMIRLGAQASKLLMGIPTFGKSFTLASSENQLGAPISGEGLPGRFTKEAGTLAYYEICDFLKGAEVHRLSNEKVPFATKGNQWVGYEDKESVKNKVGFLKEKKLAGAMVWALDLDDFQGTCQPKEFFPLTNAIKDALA

[4] = molecular target: T1, recombinant human YKL-40 protein …; experiment: BLI; Octet QK384; hYKL-40 amine-coupled to AR2G tips (15 ug/mL, 10 mM sodium acetate pH 5.0); H1 (IgG) 50 nM~0 nM in 2-fold dilutions in PBS with 0.09% Tween 20; 1:1 binding model; apparent KD; details: both partners purified
[5] = molecular target: T3, native YKL-40 from murine cells (Mus musculus, UniProt Q61362); experiment: western blot; H1 (IgG) as the probing antibody on lysates of human and murine cells (Figure S5); details: one partner purified
T3 construct: mouse YKL-40 (chitinase-3-like protein 1), endogenous in murine cells; source: endogenous, murine cell lysates (including mouse lung cells)
T3 sequence (Q61362 30-389): as above

EC50 [1]: 2300 pM
B1: H1 (Fab), human anti-hYKL-40 Fab (Fab, V domains shown)
VH: EVQLVESGGGLVQPGGSLRLSCAASGFTFSNYAMSWVRQAPGKGLEWVSGISGSGGTTYYADSVKGRFTISRDNSKNTLYLQMNSLRAEDTAVYYCAGVGTFDVWGQGTLVTVSS
VL: DIQMTQSPSSLSASVGDRVTITCRASQTISSWLNWYQQKPGKAPKLLIYAASRLQSGVPSRFSGSGSGTDFTLTISSLQPEDFATYYCQQSYSTPLTFGQGTKVEIK
notes: heavy chain (VH-CH1) of the H1 Fab, from the synthetic library KFab-I (human VH3 framework, randomised CDRs); light chain (VL-CL) of the H1 Fab, from the synthetic library KFab-I (human Vk1 framework, randomised CDRs); it is written on the heavy chain as a surmise; Expression vector pKFAB (in-house); source: E. coli Top10F', periplasmic extract, purified (Strep-Tactin XT)

EC50 [2]: 500 pM | binding result [3]: binds | Kd [4]: 50 pM | binding result [5]: binds
B2: H1 (IgG), human anti-hYKL-40 IgG (antibody, V domains shown)
VH: B1 VH
VL: B1 VL
notes: VH of H1, as in the heavy chain of m2 (PDB 7CJ2); human VH3 framework; human IgG1 heavy-chain constant region, from the heavy-chain vector (pOptiVEC) used for Herceptin expression as IgG1 backbone; VL-CL (Vk1, Ck1) of H1, as the light chain of m2 (PDB 7CJ2); IgG1, kappa; VL and CL were amplified and joined by overlap extension PCR; VH was cloned into the Herceptin IgG1 backbone; also called H1 …
